Assays:
rSEZ6-ECD-His = biological target: T1, rSEZ6-ECD-His (rat, UniProt Q7TSK2 20-922 (mouse entry)); assay: bio-layer interferometry (ForteBio RED) or surface plasmon resonance (Biacore 2000) on rat SEZ6-His; the table does not say which; column Rat XR (Kd, nM)
T1 construct: the whole entry is named; also called rat recombinant SEZ6-His; rat SEZ6 ECD
T1 chain: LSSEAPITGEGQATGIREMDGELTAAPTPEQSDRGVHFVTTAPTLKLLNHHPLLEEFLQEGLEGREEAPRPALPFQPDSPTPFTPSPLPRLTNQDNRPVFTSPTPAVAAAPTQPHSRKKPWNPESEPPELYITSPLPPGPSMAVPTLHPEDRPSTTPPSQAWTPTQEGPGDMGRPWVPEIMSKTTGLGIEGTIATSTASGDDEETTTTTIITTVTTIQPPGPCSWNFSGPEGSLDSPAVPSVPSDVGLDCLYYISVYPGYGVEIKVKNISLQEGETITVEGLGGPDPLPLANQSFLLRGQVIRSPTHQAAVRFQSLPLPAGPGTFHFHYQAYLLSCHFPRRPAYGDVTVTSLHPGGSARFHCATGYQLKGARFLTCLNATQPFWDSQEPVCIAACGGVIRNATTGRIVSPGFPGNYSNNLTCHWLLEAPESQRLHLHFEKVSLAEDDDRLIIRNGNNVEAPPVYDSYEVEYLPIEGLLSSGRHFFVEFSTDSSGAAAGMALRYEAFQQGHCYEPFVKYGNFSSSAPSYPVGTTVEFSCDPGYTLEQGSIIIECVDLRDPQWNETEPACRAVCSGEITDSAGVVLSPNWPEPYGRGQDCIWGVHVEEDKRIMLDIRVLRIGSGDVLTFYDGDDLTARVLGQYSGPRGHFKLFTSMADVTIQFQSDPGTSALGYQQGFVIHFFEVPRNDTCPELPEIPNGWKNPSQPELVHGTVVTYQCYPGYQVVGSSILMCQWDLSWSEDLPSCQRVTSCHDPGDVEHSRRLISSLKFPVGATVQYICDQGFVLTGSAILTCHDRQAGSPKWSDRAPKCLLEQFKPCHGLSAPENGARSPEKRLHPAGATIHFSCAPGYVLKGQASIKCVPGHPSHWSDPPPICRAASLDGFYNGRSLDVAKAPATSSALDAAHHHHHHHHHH
Source text: (§1) Various methods were used to analyze the binding and immunochemical characteristics of selected SEZ6 modulators generated as set forth above.

hSEZ6-ECD-His = biological target: T2, hSEZ6-ECD-His (human, UniProt Q53EL9 20-925); assay: bio-layer interferometry (ForteBio RED) or surface plasmon resonance (Biacore 2000) on human SEZ6-His; the table does not say which; column Hu Affinity (Kd, nM)
T2 construct: the whole entry is named; also called recombinant SEZ6-His; human recombinant SEZ6-His
Source text: as §1

[1] = biological target: T3, rat SEZ6 on RIN-m5F cells (rat, UniProt Q7TSK2 20-991 (mouse entry)); assay: flow cytometry, RIN-m5F cells, 5 ug/mL antibody
T3 construct: endogenous on RIN-m5F cells; also called rSEZ6
T3 chain: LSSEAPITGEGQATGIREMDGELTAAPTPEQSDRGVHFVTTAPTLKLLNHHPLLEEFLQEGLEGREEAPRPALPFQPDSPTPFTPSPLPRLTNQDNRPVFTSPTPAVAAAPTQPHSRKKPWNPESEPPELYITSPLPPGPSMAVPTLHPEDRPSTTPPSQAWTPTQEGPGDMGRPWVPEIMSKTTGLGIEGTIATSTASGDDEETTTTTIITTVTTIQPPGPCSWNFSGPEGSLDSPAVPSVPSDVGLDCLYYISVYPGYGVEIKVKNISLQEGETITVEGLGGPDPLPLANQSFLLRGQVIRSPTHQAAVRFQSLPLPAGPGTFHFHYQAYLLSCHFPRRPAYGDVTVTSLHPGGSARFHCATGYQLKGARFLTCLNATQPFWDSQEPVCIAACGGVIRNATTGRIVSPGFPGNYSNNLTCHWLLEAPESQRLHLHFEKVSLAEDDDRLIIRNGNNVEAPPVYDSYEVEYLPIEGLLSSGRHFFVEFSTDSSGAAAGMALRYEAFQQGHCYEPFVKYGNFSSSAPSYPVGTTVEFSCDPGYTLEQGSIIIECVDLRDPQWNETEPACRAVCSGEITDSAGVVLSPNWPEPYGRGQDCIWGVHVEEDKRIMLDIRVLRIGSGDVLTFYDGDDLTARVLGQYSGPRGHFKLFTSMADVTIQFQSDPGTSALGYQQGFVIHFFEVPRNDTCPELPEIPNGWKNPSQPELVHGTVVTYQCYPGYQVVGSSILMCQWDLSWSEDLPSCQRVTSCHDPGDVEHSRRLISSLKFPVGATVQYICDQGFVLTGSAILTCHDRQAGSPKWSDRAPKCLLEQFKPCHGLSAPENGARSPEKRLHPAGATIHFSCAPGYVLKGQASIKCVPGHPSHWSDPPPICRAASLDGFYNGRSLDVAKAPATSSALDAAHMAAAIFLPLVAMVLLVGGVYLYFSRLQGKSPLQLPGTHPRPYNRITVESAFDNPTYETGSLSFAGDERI
Procedure: Briefly 1×10⁵ cells per well of Neuro2a, RIN-5mF, or yeast displaying cynomolgus SEZ6 cells were incubated for 30 minutes with 50 μL PBS (2% FCS) buffer with 5 μg/mL antibody. […] After incubating for 15 minutes cells were washed twice with the PBS buffer and re-suspended in the same with DAPI for flow cytometry analysis of Neuro2a and Rin-m5F or buffer without DAPI for flow cytometric analysis of yeast cells with cSEZ6.

B1: SC17.17 (antibody, V domains shown)
VH: EVQLQQSGPEVMKPGASVKMSCKASGYTFTDYNMHWVKQNQGKSLEWIGEINPNIGGTGYNQKFKGKATLTVHKSSSTAYMELRSLTSEDSAVYYCARTYSYYSYEFAYWGQGTLVTVSA
VL: QIVLTQSPAIMSASPGEKVTMTCSASSSVSYMHWYQQKSGTSPKRWIYDTSKLPSGVPARFSGSGSGTSYSLTISSMEAEDAATYYCQQWSSTPPTFGAGTKLELK
notes: murine mAb
In the case of B1, the Kd (rSEZ6-ECD-His) is reported as 5 nM, the Kd (hSEZ6-ECD-His) is reported as 1.8 nM and the binding result [1] is reported as “binds”.

B2: SC17.34 (antibody, V domains shown)
VH: EVQLQQSGPELVKPGSSVKISCKASGYTFTDYNMDWVKQSHGKRLEWIGYIYPDNGGAGYNQKFKGKATLTVDKSSSTAYMELRSLTSEDSAVYYCSRSITTAWFAYWGQGTLVTVSA
VL: DIKMTQSPSSMYASLGERVTITCKASQDINSYLSWFQQKPGKSPKTLIYRANRLVDGVPSRFSGSGSGQDYSLTISSLEYEDMGIYYCLQYDEFPPTFGGGTKLEIK
notes: murine mAb
For B2, the Kd (rSEZ6-ECD-His) was 79.5 nM, the Kd (hSEZ6-ECD-His) was 15.1 nM and the binding result [1] was “binds”.
